From PMC5178350

Target: Haloferax volcanii deoxyhypusine synthase (T7-His-DHS) (Haloferax volcanii)
Assay: SEC; Sephacryl S-200 HR gel filtration column equilibrated with buffer A (20 mM Tris-HCl pH 8, 2 M NaCl), flow rate 0.3 mL/min; oligomer size from the estimated molecular weight

stoichiometry N: 4
Substance: Haloferax volcanii deoxyhypusine synthase (T7-His-DHS) (enzyme)
